The record followed here is paper PMC2943609.

Series [1] concerns the target T1, CggR (Bacillus subtilis, UniProt O32253 1-340). In words: SEC and SAXS.
The target in series [2] is T1, CggR. Put plainly: SEC and SAXS. The source holds these as a separate data set.
For series [3], the target named is T1, CggR. Put plainly: two-photon FCCS.

T1 sequence (O32253 whole entry): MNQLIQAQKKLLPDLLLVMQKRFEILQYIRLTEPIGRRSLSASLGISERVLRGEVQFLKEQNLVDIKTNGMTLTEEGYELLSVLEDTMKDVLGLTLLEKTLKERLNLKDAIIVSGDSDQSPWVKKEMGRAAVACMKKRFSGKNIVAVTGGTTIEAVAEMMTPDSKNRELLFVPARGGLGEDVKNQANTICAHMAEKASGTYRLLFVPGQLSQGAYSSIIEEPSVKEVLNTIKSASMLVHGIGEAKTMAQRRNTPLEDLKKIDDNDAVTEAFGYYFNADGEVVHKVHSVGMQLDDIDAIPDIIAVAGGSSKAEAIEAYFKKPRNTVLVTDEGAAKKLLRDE

B1: OLR full-length gapA operator, 45 bp (dsDNA)
DNA 1: TGACGGGACGTTTTTTGTCATAGCGGGACATATAATGTCCAGCAA
DNA 2: TTGCTGGACATTATATGTCCCGCTATGACAAAAAACGTCCCGTCA
In the case of B1, the binding result in the series with CggR [1] is “binds”.

B2: OR right half-operator, 23 bp (dsDNA)
DNA 1: TAGCGGGACATATAATGTCCAGC
DNA 2: GCTGGACATTATATGTCCCGCTA
Take B2: the binding result with CggR [2] is given as “binds”.

B3: OR 23 bp, fluorescent (mix of two singly labelled duplexes) (dsDNA)
DNA 1: TAGCGGGACATATAATGTCCAGC
DNA 2: GCTGGACATTATATGTCCCGCTA
Consider B3, for which, in the series with CggR [3], the binding result is reported as “binds”.
